The values below come from article PMC5026585 (ACS chemical biology, 2016).

Where a SMILES comes first, the peptide text is derived from it. [ ]: non-standard residue; d: D form. The star is where a group is joined. Benzoyl(4-tBu) = CC(C)(C)c1ccc(C(=O)*)cc1; Lys(Et2) = CCN(CC)CCCC[C@H](N)C(=O)O

The subject of test [1] is chromodomain of MPP8. Put plainly: selectivity profile of UNC3866, MPP8. The class given is binding. As to conditions: reduced potency relative to CBX7 and CBX4.
For test [2], the target named is PRC1 chromodomains (CBX2, -4, -6, -7, and -8). As to conditions: cited from earlier work.
Test [3] deals with CDYL chromodomains. Put plainly: selectivity profile of UNC3866, CDYL chromodomains. Conditions: reduced potency relative to CBX7 and CBX4. Format: binding.
Test [4] concerns the target CDY1 chromodomain (Testis-specific chromodomain protein Y 1). Put plainly: fluorescence polarisation.
Test [5] addresses CBX8 chromodomain (chromobox protein homolog 8). Put plainly: fluorescence polarisation. (In fluorescence polarisation assays a small probe gives low polarisation when free and higher when bound to something large.)
Test [6] has as its target MPP8 chromodomain (M-phase phosphoprotein 8). Briefly: fluorescence polarisation.
Test [7] deals with CDYL2 chromodomain (Chromodomain Y-like protein 2). Put plainly: fluorescence polarisation.
Test [8] has as its target CDYL chromodomain (Chromodomain Y-like protein). Briefly: fluorescence polarisation.
Test [9] concerns the target CBX7 chromodomain (chromobox protein homolog 7). Put plainly: fluorescence polarisation.

As usually defined, the Kd is the concentration at which binding is half-saturated. For the compound `CCN(CC)CCCC[C@H](NC(=O)[C@H](CC(C)C)NC(=O)[C@H](C)NC(=O)[C@H](Cc1ccccc1)NC(=O)c1ccc(C(C)(C)C)cc1)C(=O)N[C@@H](CO)C(=O)OC` [UNC3866] ({Benzoyl(4-tBu)}-FAL[Lys(Et2)]S-OMe), the “selectivity, MPP8 relative to CBX7 and CBX4” value in [1] is recorded as ~30 fold. In addition, the dissociation constant (Kd) in test [2] is ~100 nM. Moreover, in [3], the “selectivity, CDYL chromodomains relative to CBX7 and CBX4” value was ~8 fold.

For the compound UNC3866-FAM (peptide), the Kd in [4] was 6410 nM; in test [5], 666 nM; in test [6] it was 4790 nM; in test [7], 710 nM; in test [8], 1010 nM; in test [9], 93 nM.
